# Measurements from US20220218834A1, “APOHEMOGLOBIN-HAPTOGLOBIN COMPLEXES AND METHODS OF USING THEREOF” (OHIO STATE INNOVATION FOUNDATION, priority 2019, published 2022).
# B1: Hpx: hemopexin, plasma heme scavenging protein (protein, UniProt P02790 24-462, looked up)
# Hemopexin: TPLPPTSAHGNVAEGETKPDPDVTERCSDGWSFDATTLDDNGTMLFFKGEFVWKSHKWDRELISERWKNFPSPVDAAFRQGHNSVFLIKGDKVWVYPPEKKEKGYPKLLQDEFPGIPSPLDAAVECHRGECQAEGVLFFQGDREWFWDLATGTMKERSWPAVGNCSSALRWLGRYYCFQGNQFLRFDPVRGEVPPRYPRDVRDYFMPCPGRGHGHRNGTGHGNSTHHGPEYMRCSPHLVLSALTSDNHGATYAFSGTHYWRLDTSRDGWHSWPIAHQWPQGPSAVDAAFSWEEKLYLVQGTQVYVFLTKGGYTLVSGYPKRLEKEVGTPHGIILDSVDAAFICPGSSRLHIMAGRRLWWLDLKSGAQATWTELPWPHEKVDGALCMEKSLGPNSCSANGPGLYLIHGPNLYCYSDVEKLNAAKALPQPQNVTSLLGCTH
# Key:
# [1] = ApoHb stability during storage (DCNh activity assay, total protein, RP-HPLC); format: physicochemical; conditions: for effect of time on apoHb activity or total protein: stored at −80° C.
# Protocol: The extinction coefficients of DCNh and rHbCN were 85 mM^−1 cm^−1 and 114 mM^−1 cm^−1, respectively.
# Three TFF-apoHb batches were prepared. […] These groups consisted of unconcentrated, concentrated and lyophilized apoHb. […] The remainder of the batch was either sent to be lyophilized or to be concentrated to […]. […] The lyophilized powder was stored in a closed container at −80° C. […] These time intervals were chosen to capture relevant changes in activity at each storage condition. […] Thus, after initial measurements on a weekly basis, the insignificant changes lead to longer intervals between measurements. Statistical analysis was performed on JMP Pro v 12.2.2 (SAS Institute, Cary, N.C.) and measured concentrations were compared to the initial time point values of each batch. A linear fit with the logarithmic value of the concentration was used to examine the effect of time with the ANOVA test. For time point differences, time was considered as discrete and the TUKEY HSD test was performed.
# Reverse Phase Chromatography. Reverse phase (RP) chromatography was performed with a BioBasic-18 column (Thermo Scientific, Waltham, Mass.) on a Thermo Scientific Dionex Ultimate UHPLC system. The flow rate of the mobile phase was set to 0.75 mL/min. The column was equilibrated with 35% acetonitrile and 65% TFA (0.5 wt %, pH 2.6) for 10 minutes. The gradient was then shifted to 43% acetonitrile over a 1 minute interval. The protein was eluted with an increasing linear gradient of 43 to 47% acetonitrile for 30 minutes. The column was then held at 47% acetonitrile for 20 minutes.
# acellular human Hb = biological target: T1, acellular human Hb (Homo sapiens, UniProt P68871+P69905); experiment: Vascular response to acellular Hb after pretreatment, hamster dorsal window chamber; format: in vivo, Golden Syrian Hamsters
# T1 construct: Expired units of human red blood cells were generously donated; from tissue; host or cells: expired human red blood cell units; purified in house by tangential flow filtration
# T1 sequence (P69905 2-142 limits assumed): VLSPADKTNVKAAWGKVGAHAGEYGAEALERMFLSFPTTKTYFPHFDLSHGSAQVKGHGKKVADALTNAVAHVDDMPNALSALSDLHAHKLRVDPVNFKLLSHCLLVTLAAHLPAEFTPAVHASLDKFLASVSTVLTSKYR
# T1 sequence (P68871 2-147 limits assumed): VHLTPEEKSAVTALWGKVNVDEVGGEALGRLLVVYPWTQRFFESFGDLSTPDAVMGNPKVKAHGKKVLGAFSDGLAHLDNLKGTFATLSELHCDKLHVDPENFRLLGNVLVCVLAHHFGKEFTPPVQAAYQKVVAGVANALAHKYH
# Protocol: Studies were performed in 55-65 g male Golden Syrian Hamsters (Charles River Laboratories, Boston, Mass.) fitted with a dorsal window chamber. The hamster window chamber model is widely used for microvascular studies without anesthesia. The complete surgical technique has been described previously. Two days after window implantation, arterial and venous catheters filled with heparinized saline solution (30 IU/mL) were implanted into the carotid and jugular vessels. Catheters were tunneled under the skin, exteriorized at the dorsal side of the neck, and securely attached to the window frame.
# The unanesthetized animal was placed in a restraining tube with a longitudinal slit from which the window chamber protruded, then fixed to the microscopic stage for transillumination with the intravital microscope (BX51WI, Olympus, Japan). Animals were given 20 minutes to adjust to the tube environment and images were obtained using a CCD camera (4815, COHU, San Diego, Calif.). […]
# The MAP and HR were monitored continuously (MP150, Biopac System Inc., Santa Barbara, Calif.). Hct was measured from centrifuged arterial blood samples taken in heparinized capillary tubes. Hb content was determined spectrophotometrically (B-Hemoglobin, Hemocue, Stockholm, Sweden). Arterial blood was collected in heparinized glass capillaries (50 μL) and immediately analyzed for pO2, pCO2, and pH (ABL90; Radiometer America, Brea, Calif.). Arterial Hb saturation was measured using an IL482 CO-Oximeter (Instrumentation Laboratory, Lexington, Mass.).
# Arteriolar and venular blood flow velocities were measured using the photodiode cross-correlation method (Photo-Diode/Velocity, Vista Electronics, San Diego, Calif.). The measured centerline velocity (V) was corrected according to blood vessel size to obtain the mean RBC velocity. […] Blood flow (Q) was calculated from the measured values as Q=π/4D^2 V.
# Functional capillaries, defined as capillary segments that have transit of at least one RBC in a 60 second period in 10 successive microscopic fields, were assessed in a region of 0.46 mm^2. […]
# PolyHb = biological target: T2, PolyHb (Homo sapiens, UniProt P68871+P69905); experiment: 20% isovolemic exchange transfusion of PolyHb after pretreatment, hamster window chamber; format: in vivo, Golden Syrian Hamsters
# T2 construct: from tissue; host or cells: human red blood cells; Hb purified and polymerised in house
# T2 sequence (P69905 2-142 limits assumed): as the sequence (P69905 2-142 limits assumed) above
# T2 sequence (P68871 2-147 limits assumed): as the sequence (P68871 2-147 limits assumed) above
# Protocol: Additionally, animals with signs of low perfusion, inflammation, edema, or bleeding in their microvasculature were excluded from the study. Prior to treatment, baseline systemic parameters and microvascular hemodynamics were assessed. […] 20 minutes following the initial treatment, the systemic parameters and microvascular hemodynamics were assessed. Afterward, the animals underwent a 20 percent isovolemic exchange transfusion with a 10 g/dL PolyHb solution. After another 20 minutes, the systemic parameters and microvascular hemodynamics were measured. Mean arterial pressure (MAP) and heart rate (HR) were monitored continuously (MP150, Biopac System Inc., Santa Barbara, Calif.). The sample size of 5 animals per group was calculated based on an expected 10% difference in mean arterial pressure between groups, an α=0.05, and […], and equal enrollment for all groups. Additionally, microhemodynamic measurements contain data from multiple vessels within the field (5-7 arterioles and venules selected at baseline based on visual clarity), improving the power of these measurements. Each experiment is a repeated measures study, so all experimental timepoints are replicated between all animals and groups. Furthermore, each experimental group contains animals from different litters, improving the replication of these studies. Animals were randomly assigned to their respective group before baseline measurements were taken. Each group contains animals from multiple litters of hamsters to improve randomization. Investigators were not blinded to group allocation during data collection or analysis. Blinding is not possible with these solutions as they have distinct colors. Measurements taken are highly quantitative, so blinding should have little impact.
# The unanesthetized animal was placed in a restraining tube with a longitudinal slit from which the window chamber protruded, then fixed to the microscopic stage for transillumination with the intravital microscope (BX51WI, Olympus, New Hyde Park, N.Y.). […] Measurements were carried out using a 40× (LUMPFL-WIR, numerical aperture 0.8, Olympus) water immersion objective.
# Arteriolar and venular blood flow velocities were measured using the photodiode cross-correlation method (Photo-Diode/Velocity, Vista Electronics, San Diego, Calif.). The measured centerline velocity (V) was corrected according to blood vessel size to obtain the mean RBC velocity. A video image-shearing method was used to measure blood vessel diameter (D). Blood flow (Q) was calculated from the measured values as
# Functional capillaries, defined as capillary segments that have RBC transit of at least one RBC in a 60 second period in 10 successive microscopic fields, were assessed in a region of 0.46 mm^2. FCD (mm^−1) is calculated as the total length of RBC perfused capillaries divided by the area (0.46 mm^2).
# [2] = Specificity of Al-PC binding to proteins (UV-visible absorbance at 680 nm); conditions: absorbance at 680 nm after Al-PC addition in PBS
# Protocol: The stock Al-PC solution was diluted 100× into 100% EtOH.
# The concentrations of Hp, HSA, Hb and rHb in solution were 1.0 mg/mL, 0.35 mg/ml (and 3.5 mg/ml), 0.35 mg/mL, and 0.33 mg/mL respectively.
# β-thalassemic mice = conditions: cited from earlier work
molecule,measurement,setting,value
apoHb: protein produced by removing heme from Hb; made via acidic ethanol tangential flow filtration,loss of apoHb activity during long term storage,"[1]; 4° C., −80° C., and lyophilized form",Virtually no loss of apoHb activity
same,total protein and activity in solution during storage,"[1]; 37° C., liquid",quickly lost total protein and activity in solution
same,P50 and cooperativity coefficient after reconstitution into rHb,"[1]; apoHb stored at 4° C. for one month, vs reconstituted right after production",did not show any significant difference
same,effect of time on apoHb activity or total protein,[1]; lyophilized,did not show a significant effect of time on apoHb activity or total protein
same,retention of total protein,[1]; one-week storage at 22° C.,80-90%
same,oxidative modifications (RP-HPLC),[1]; stored at 4° C. or at 22° C.,show an additional β-chain peak (βox)
same,effect of time on activity,"[1]; stored at 4° C., unconcentrated",no significant differences were seen after day 10
same,oxidative modifications (RP-HPLC),[1]; stored at −80° C. or lyophilized for over a year,no oxidative modifications were observed
same,effect of time on apoHb activity or total protein,[1]; both concentrations,no statistically significant effect of time on apoHb activity or total protein
same,MAP,acellular human Hb; after acellular Hb 10% hypervolemic infusion,elevated MAP compared to baseline and pretreatment
same,FCD,acellular human Hb; after acellular Hb infusion,FCD decreased
same,HR,acellular human Hb; after acellular Hb infusion,statistically significant decrease in HR from baseline and pre-treatment
same,MAP,PolyHb; after PolyHb exchange transfusion,significant increase in MAP
same,FCD,PolyHb; after PolyHb transfusion,FCD significantly decreased
same,arteriole and venule diameter,PolyHb; after PolyHb transfusion,significant decrease in relative arteriole and venule diameter compared to the baseline
same,arteriole and venule fluid velocities and volumetric flow rates,PolyHb; after PolyHb transfusion,the volumetric flow rate in the arterioles and venules decreased
same,MAP or HR,"PolyHb; after administration, prior to transfusion of PolyHb",no significant effect on MAP or HR
same,FCD,"PolyHb; after treatment, before PolyHb transfusion",significant increase in FCD
same,Al-PC binding,[2],Al-PC bound to apoHb and prevented Al-PC aggregation
B1,RBC levels,β-thalassemic mice; Hpx treatment alone,did not improve RBC levels
same,iron levels in the liver,β-thalassemic mice; one month of Hpx treatment alone,increased iron levels in the liver
